# Assay results from article PMC10159003.
# Values joined by “and” are separate entries in the source; they are usually repeats but may differ in a detail not shown here. Equal entries are not always repeated. Where two headings read alike, the source gives them in different places.
# What was measured:
# [1] = biological target: full-length RtcR (S. Typhimurium); assay: SEC
# [2] = biological target: full-length RtcR (S. Typhimurium); assay: SEC; remark: listed apart in the source
substance,measurement,setting,value
full-length RtcR (natural protein),stoichiometry N,[1],2 and 6
same,stoichiometry N,[2],2 and 6
